Laboratory results taken from the supplement of paper PMC7125110.
± gives the standard error. Fewer inactive variants are shown than the library holds.

B1: glmS ribozyme (parent)
chain: AUAAAAGCGCCAGAACUACAGAAAUGUAGUUGACGAGGAGGAGGUUUAUCGAAUUUUCGGCGGAUGCCUCCAAA

Variants of: B1
Assay: self-cleavage kobs at 10000 uM GlcN6P; higher = faster cleavage; RNA array
Settings: with glucosamine-6-phosphate
Method in brief: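 Tracking of barcoded ribozyme variants used a hybridised Cy3 probe at 37 °C, after in situ transcription by E. coli RNA polymerase on sequenced MiSeq chips. The flowed solution held 40 μM to 10 mM glucosamine-6-phosphate in HEPES/KCl/Mg(OAc)2 buffer, and imaging ran over ~14 h. kobs was taken from exponential decay fits of normalised per-tile medians, and kcat and KM from weighted Michaelis–Menten fits.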

Variant | self-cleavage kobs at 10000 uM GlcN6P [s⁻¹]
AUAAAAGCGCCAGAACUACAGAAAUGUAGUUGACGAGGAGGAGGUUUAUGGAAUUUUCGGCGGAUGUGUCGAAA [C50G C67U C68G C71G] | 0.000108 ± 2.8e-05
AUAAAAGCGCCAGAACUACAGAAAUGUAGUUGACGAGGAGGAGGUUUAUCGAAUUUUUGGCGCAUGCCUUCAAA [C58U G63C C70U] | < 1e-05
AUAAAAGCGCCAGAACUACAGAAAUGUAGUUGACGAGGAGGAGGUUUAUCGUAUUUUCGGCGGAUCCCUCCAAA [A52U G66C] | 4.08e-05 ± 1.2e-05
AUAAAAGCGCCAGAACUACAGAAAUGUAGUUGACGAGGAGGAGGUUUAUCGAAUUAUCGGCGGAUGCCCCGAAA [U56A U69C C71G] | 8.19e-05 ± 2e-05
AUAAAAGCGCCAGAACUACAGAAAUGUAGUUGACGAGGAGGAGGUUUAUCGAAGUUUCGGCGGAUGUUUCCAAA [U54G C67U C68U] | 0.000147 ± 2.9e-05
AUAAAAGCGCCAGAACUACAGAAAUGUAGUUGACGAGGAGGAGGUUUAUCGAAUAUUCGGCGGUUGCCUCAAAA [U55A A64U C71A] | 4.3e-05 ± 1.9e-05
AUAAAAGCGCCAGAACUACAGAAAUGUAGUUGACGAGGAGGAGGUUUAUGGAAUUUUCGACGGAUGCCUCGAAA [C50G G60A C71G] | 0.000124 ± 3.5e-05
AUAAAAGCGCCAGAACUACAGAAAUGUAGUUGACGAGGAGGAGGUUUAUUGAAUUUUCGGCGGCUGCCUCAAAA [C50U A64C C71A] | < 1e-05
AUAAAAGCGCCAGAACUACAGAAAUGUAGUUGACGAGGAGGAGGUUUAUUGAAUUUUCCGCGGGUGCCUCUAAA [C50U G59C A64G C71U] | < 1e-05
AUAAAAGCGCCAGAACUACAGAAAUGUAGUUGACGAGGAGGAGGUUUUUCGAACUUUCGGCGGAUGCUUCCAAA [A48U U54C C68U] | 9.01e-05 ± 2.8e-05
AUAAAAGCGCCAGAACUACAGAAAUGUAGUUGACGAGGAGGAGGUUUAUCGAAUGUUCGGAGGAUGCCUCCAAA [U55G C61A] | < 1e-05
AUAAAAGCGCCAGAACUACAGAAAUGUAGUUGACGAGGAGGAGGUUUAUCGAAUUUUCUGCAGGUGCCUCCAAA [G59U G62A A64G] | < 1e-05
AUAAAAGCGCCAGAACUACAGAAAUGUAGUUGACGAGGAGGAGGUUUAUCGAAUUUCAGGCGGAUGCCUUCAAA [U57C C58A C70U] | 3.37e-05 ± 1.7e-05
AUAAAAGCGCCAGAACUACAGAAAUGUAGUUGACGAGGAGGAGGUUUAUCGAAUUUUCGGCGGGUGCCCCCAAA [A64G U69C] | 0.000688 ± 0.00018
AUAAAAGCGCCAGAACUACAGAAAUGUAGUUGACGAGGAGGAGGUCUAUCGAAUUUUCGGCGGAUGCAUCCAAA [U46C C68A] | 3.47e-05 ± 1e-05
AUAAAAGCGCCAGAACUACAGAAAUGUAGUUGACGAGGAGGAGGUUUAUCGAAUGUUCUGCGGAUGCCUCCAAA [U55G G59U] | 4.4e-05 ± 1.1e-05
AUAAAAGCGCCAGAACUACAGAAAUGUAGUUGACGAGGAGGAGGUGUAUCGAAUGUUCGGCGGAUUCCUCCAAA [U46G U55G G66U] | 0.000444 ± 0.00018
AUAAAAGCGCCAGAACUACAGAAAUGUAGUUGACGAGGAGGAGGUUUAACGAAUUUUCGGCGGAUGCCUACAAA [U49A C70A] | < 1e-05
AUAAAAGCGCCAGAACUACAGAAAUGUAGUUGACGAGGAGGAGGUUUCUCGAAUUUUCGGCGGAUGCCUCGAAA [A48C C71G] | 2.78e-05 ± 8.9e-06
AUAAAAGCGCCAGAACUACAGAAAUGUAGUUGACGAGGAGGAGGUUUAUCGGAUUUGCGGCGGACGCCUCCAAA [A52G U57G U65C] | 6.98e-05 ± 1.2e-05
AUAAAAGCGCCAGAACUACAGAAAUGUAGUUGACGAGGAGGAGGUUUAACGAACUUUCGGCGGAUGGCUCCAAA [U49A U54C C67G] | < 1e-05
AUAAAAGCGCCAGAACUACAGAAAUGUAGUUGACGAGGAGGAGGUUUACCUAAUUUUCGGCGGAUGCCUGCAAA [U49C G51U C70G] | < 1e-05
AUAAAAGCGCCAGAACUACAGAAAUGUAGUUGACGAGGAGGAGGUUUAUCGAAUUUUCGCCGGGGGCCUCCAAA [G60C A64G U65G] | < 1e-05
AUAAAAGCGCCAGAACUACAGAAAUGUAGUUGACGAGGAGGAGGUUUAAGAAAUUUUCGGAUGAUGCCUCCAAA [U49A C50G G51A C61A G62U] | < 1e-05
AUAAAAGCGCCAGAACUACAGAAAUGUAGUUGACGAGGAGGAGGUUUAUCCAAUCUUCGGCGGAUGCCUCCAAA [G51C U55C] | < 1e-05
AUAAAAGCGCCAGAACUACAGAAAUGUAGUUGACGAGGAGGAGGUUUAUCGAAUUUUCGGCGGGUGCCUACAAA [A64G C70A] | 3.24e-05 ± 9.8e-06
AUAAAAGCGCCAGAACUACAGAAAUGUAGUUGACGAGGAGGAGGUUAAUCGAAUUUUCAGCGGAUGCCUCUAAA [U47A G59A C71U] | 6.73e-05 ± 2.5e-05

Variant | self-cleavage kobs at 10000 uM GlcN6P [s⁻¹]
AUAAAAGCGCCAGAACUACAGAAAUGUAGUUGACGAGGAGGAGGUGUAUCGAAUUUUCGGCAGAUGCCUCAAAA [U46G G62A C71A] | < 1e-05
AUAAAAGCGCCAGAACUACAGAAAUGUAGUUGACGAGGAGGAGGUUUUUGGAAUUUUCGGCGGAUGCCUCCAAA [A48U C50G] | < 1e-05
AUAAAAGCGCCAGAACUACAGAAAUGUAGUUGACGAGGAGGAGGUUUUUCGAAUUUUCGGCCGAUGGCUCCAAA [A48U G62C C67G] | < 1e-05
AUAAAAGCGCCAGAACUACAGAAAUGUAGUUGACGAGGAGGAGGUAGAUCGAAUUUUCGGCGGAUCCCUCCAAA [U46A U47G G66C] | 0.000401 ± 9.3e-05
AUAAAAGCGCCAGAACUACAGAAAUGUAGUUGACGAGGAGGAGGUUUGUCGAAUUUUCGGCCGAUGCCUGCAAA [A48G G62C C70G] | < 1e-05
AUAAAAGCGCCAGAACUACAGAAAUGUAGUUGACGAGGAGGAGGUUUAUCAUAUUUUCAGCGGAUGCCUCCAAA [G51A A52U G59A] | < 1e-05
AUAAAAGCGCCAGAACUACAGAAAUGUAGUUGACGAGGAGGAGGUUUAUCGAAUUUUCGGCGGUUCCCUCCAAA [A64U G66C] | 4.03e-05 ± 1.2e-05
AUAAAAGCGCCAGAACUACAGAAAUGUAGUUGACGAGGAGGAGGUUUAUCGAAUUGUCGGCGGUUGCCUUCAAA [U56G A64U C70U] | 4.79e-05 ± 1.2e-05
AUAAAAGCGCCAGAACUACAGAAAUGUAGUUGACGAGGAGGAGGUUUAUCGAGUUUUCGGCGCAUGCCUCCAAA [A53G G63C] | < 1e-05
AUAAAAGCGCCAGAACUACAGAAAUGUAGUUGACGAGGAGGAGGUUUAUCGAAUGUUCCGCGGAUGCCUACAAA [U55G G59C C70A] | 0.000104 ± 2.7e-05
AUAAAAGCGCCAGAACUACAGAAAUGUAGUUGACGAGGAGGAGGUUUAUCGAAUUUUCCGCGCAUGCCUCCAAA [G59C G63C] | < 1e-05
AUAAAAGCGCCAGAACUACAGAAAUGUAGUUGACGAGGAGGAGGUUUAUCGAAUUUUCGACGGAUGCUUUCAAA [G60A C68U C70U] | < 1e-05
AUAAAAGCGCCAGAACUACAGAAAUGUAGUUGACGAGGAGGAGGUUUGUCGAAUUUUAGGCGGAUGCCUCCAAA [A48G C58A] | 4.59e-05 ± 1.1e-05
AUAAAAGCGCCAGAACUACAGAAAUGUAGUUGACGAGGAGGAGGUUUAUGGAAUUUUCGGCCGAUGCCUACAAA [C50G G62C C70A] | 0.000153 ± 4.6e-05
AUAAAAGCGCCAGAACUACAGAAAUGUAGUUGACGAGGAGGAGGUUUGGCGAAUUUUCGGCGGAUGCCUCCAAA [A48G U49G] | 5.7e-05 ± 2.1e-05
AUAAAAGCGCCAGAACUACAGAAAUGUAGUUGACGAGGAGGAGGUAUAUCGAAUUUUCGGCCGAUGCCUCUAAA [U46A G62C C71U] | < 1e-05
AUAAAAGCGCCAGAACUACAGAAAUGUAGUUGACGAGGAGGAGGUUUAUGGAAGUUUCGGCGGAGGCCUCCAAA [C50G U54G U65G] | < 1e-05
AUAAAAGCGCCAGAACUACAGAAAUGUAGUUGACGAGGAGGAGGUUUAUCGAAUUUUUCGGCGGAUCCUCCAAA [C58U G59C C61G G62C A64G U65A G66U] | < 1e-05
AUAAAAGCGCCAGAACUACAGAAAUGUAGUUGACGAGGAGGAGGUUUAUCUAACUUUCGGCGGAUUCCUCCAAA [G51U U54C G66U] | < 1e-05
AUAAAAGCGCCAGAACUACAGAAAUGUAGUUGACGAGGAGGAGGUUUAUCGACUUUUCGGCGGAUGCCCCCAAA [A53C U69C] | 0.00127 ± 0.00031
AUAAAAGCGCCAGAACUACAGAAAUGUAGUUGACGAGGAGGAGGUUUAUCUAUUUUUCGUCGGAUGCCUUCAAA [G51U A53U G60U C70U] | < 1e-05
AUAAAAGCGCCAGAACUACAGAAAUGUAGUUGACGAGGAGGAGGUUUAUCGCAUUUUCGGCGGAUGACUCCAAA [A52C C67A] | 2.55e-05 ± 1.1e-05
AUAAAAGCGCCAGAACUACAGAAAUGUAGUUGACGAGGAGGAGGUUUAUGGAUUUUUCGGCGGAUGCCUCGAAA [C50G A53U C71G] | 0.000148 ± 4e-05
AUAAAAGCGCCAGAACUACAGAAAUGUAGUUGACGAGGAGGAGGUUUAUCGUAUCUUCGGCGGACGCGACCAAA [A52U U55C U65C C68G U69A] | < 1e-05
AUAAAAGCGCCAGAACUACAGAAAUGUAGUUGACGAGGAGGAGGUUUAUUGAUUUUUCCGCGGAAGCCUCCAAA [C50U A53U G59C U65A] | < 1e-05
AUAAAAGCGCCAGAACUACAGAAAUGUAGUUGACGAGGAGGAGGUUUAUCGAAUUUUCAGCGGAUGCAACCAAA [G59A C68A U69A] | < 1e-05
